Publication PMC3034190 (Molecular Microbiology, 2010)

Target: the molecule itself
Assay: crystal structure

B1: MSMEG_3380 (FDR-B family F420H2-dependent reductase), recombinant, for crystallography (enzyme)
chain: MVAVPEGYESLLERPLYGHLATVRPDGTPQVNAMWFAWDGEVLRFTHTTKRQKYRNIKANPAVAMSVIDPDNPYRYLEVRGLVEDIVPDPTGAFYLKLNDRYDGPLTEPPADKADRVIIVVRPTAFSKQ
modifications: seleno-methionine labelled
binding result: binds
